Common to all, as to test: SEC; analytical size exclusion, Superdex 200 Increase 10/300 GL, mobile phase 100 mM tricine, 100 mM NaCl, pH 7.5; masses from BioRad protein standards; self-association of each purified NnlA
For orientation: SEC sorts molecules by how far they enter the pores of the column.

For data set [1], the target named is NnlA homolog from Mycobacterium sp. 1465703.0 (Mycobacterium sp. 1465703.0).
For data set [2], the target named is NnlA homolog from Pseudovibrio denitrificans JCM 1230 (Pseudovibrio denitrificans JCM 1230).
In data set [3] the target is N-nitroglycine lyase A (NnlA) from Variovorax sp. strain JS1663 (Variovorax sp. strain JS1663).
The target in data set [4] is NnlA homolog from Pseudonocardia spinosispora DSM 44797 (Pseudonocardia spinosispora DSM 44797).
Data set [5] deals with the molecule itself.

The record followed here is paper PMC11035981, “Activity assays of NnlA homologs suggest the natural product N-nitroglycine is degraded by diverse bacteria” (Beilstein Journal of Organic Chemistry, 2024).

The molecule “NnlA homolog from Mycobacterium sp. 1465703.0 (enzyme)” displayed a stoichiometry N in data set [1] of 2.
For the molecule “NnlA homolog from Pseudovibrio denitrificans JCM 1230 (enzyme)”, the stoichiometry N in data set [2] is 2.
The molecule “N-nitroglycine lyase A (NnlA) from Variovorax sp. strain JS1663 (enzyme)” had a stoichiometry N in data set [3] of 2.
As to “NnlA homolog from Pseudonocardia spinosispora DSM 44797 (enzyme)”, the stoichiometry N in data set [4] was 2.

B1: NnlA homolog from Microbispora rosea subsp. nonnitritogenes strain NRRL B-2631 (enzyme)
chain: MTSQAEPAEAAESRIATDWGLDEWADRLIDQAGVGVTILNRHGTVMYYNKWASEHLDRRPEYIGNDVRKRHRRAVTNPRLDAMLKLFEDGRVEPVRYVARPYGKTTILVTVSPIRVDGELVGFSQIVLLKDEVQELCARFDESGRESFEREMLPNGPPAT
Turning to B1, the “stoichiometry N” value in data set [5] worked out at 2.

As usually defined, the stoichiometry N is the number of molecules, sites or subunits per partner or assembly.
